The values below come from patent US20120328512A1 (BRACCO IMAGING S P A, published 2012).

Bridge positions count the residues as written; N and C are the ends. Square brackets hold non-standard residues; d marks the D form. * marks the point of attachment. αGalNAc = CC(=O)N[C@@H]1[C@@H](O)[C@@H](O)[C@@H](CO)O[C@@H]1*; Phe(3,4-F2) = N[C@@H](Cc1ccc(F)c(F)c1)C(=O)O; Thf2ca = tetrahydrofuran-2-carboxylic acid; Phe(4-F) = N[C@@H](Cc1ccc(F)cc1)C(=O)O; Cha = N[C@@H](CC1CCCCC1)C(=O)O; AEEA = NCCOCCOCC(=O)O

The target of assay [1] is DDE. The experiment in a line: competition fluorescence polarization: unlabeled peptide against Seq000-CF5 tracer on DDE; n = 2. For orientation: Fluorescence polarisation rises when a labelled molecule tumbles more slowly, as on binding a larger partner.
In assay [2] the target is T1, DDE.
T1 chain 1: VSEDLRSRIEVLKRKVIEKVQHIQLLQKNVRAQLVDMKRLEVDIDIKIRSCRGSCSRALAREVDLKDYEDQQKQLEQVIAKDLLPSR
T1 chain 2: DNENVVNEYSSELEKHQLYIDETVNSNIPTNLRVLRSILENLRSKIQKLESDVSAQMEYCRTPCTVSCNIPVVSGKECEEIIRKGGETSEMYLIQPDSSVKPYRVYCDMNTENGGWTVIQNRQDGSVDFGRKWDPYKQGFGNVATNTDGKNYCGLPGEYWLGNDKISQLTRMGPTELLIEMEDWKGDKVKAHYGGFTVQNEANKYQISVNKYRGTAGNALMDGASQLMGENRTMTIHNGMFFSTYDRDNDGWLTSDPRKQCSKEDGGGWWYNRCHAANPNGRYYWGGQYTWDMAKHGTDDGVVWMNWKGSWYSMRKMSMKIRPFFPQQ
T1 chain 3: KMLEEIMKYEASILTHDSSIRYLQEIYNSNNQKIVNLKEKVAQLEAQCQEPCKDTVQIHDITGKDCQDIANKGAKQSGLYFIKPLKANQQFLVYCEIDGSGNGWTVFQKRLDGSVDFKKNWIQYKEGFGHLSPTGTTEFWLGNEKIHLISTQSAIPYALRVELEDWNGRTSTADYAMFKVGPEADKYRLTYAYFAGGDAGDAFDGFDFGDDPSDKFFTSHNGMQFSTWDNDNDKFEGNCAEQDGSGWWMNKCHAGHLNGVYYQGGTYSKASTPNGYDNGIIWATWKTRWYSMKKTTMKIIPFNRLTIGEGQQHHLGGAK
T1 chain 4: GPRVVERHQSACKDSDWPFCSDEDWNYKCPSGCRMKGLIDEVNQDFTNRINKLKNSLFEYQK
T1 chain 5: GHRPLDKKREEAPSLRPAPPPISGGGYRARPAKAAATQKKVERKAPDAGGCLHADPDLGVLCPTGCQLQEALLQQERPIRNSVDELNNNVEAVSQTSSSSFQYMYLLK
T1 chain 6: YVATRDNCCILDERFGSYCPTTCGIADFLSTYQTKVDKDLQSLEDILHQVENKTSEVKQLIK
The description is as above.

For the molecule Ac-GWQPCPWESWTFCWDPGGGK-NH2 (disulfide 5-13) [Seq016-P], the Rel IC50 (ratio to the reference peptide) with DDE [1] was 1.04.
Same read-out and setting: as for Ac-S(αGalNAc)WQPCPWESWTFCWDPGGGK-NH2 (disulfide 5-13) [Seq027-P], the figure is 0.559; as for H-GWQPCPWESWTFCWDPGGGK-NH2 (disulfide 5-13) [Seq021-P], 0.622.
Take Ac-GGRGWQPCPWESWTFCWDPGGGK-NH2 (disulfide 8-16) [Seq015-P]: the “Rel IC50” value in the assay with DDE [2] is 0.37 ratio to the reference peptide.
As for Ac-WQPCPWESWT[Cha]CWDPGGGK-NH2 (disulfide 4-12) [Seq018-P], the Rel IC50 (ratio to the reference peptide) in the assay with DDE [1] worked out at 0.494.
On the same count and under the same terms, as for Ac-WQPCPWESWT[Phe(3,4-F2)]CWDPGGGK-NH2 (disulfide 4-12) [Seq020-P], the figure is 0.428; as for Thf2ca-WQPCPWESWTFCWDPGGGK-NH2 (disulfide 4-12) [Seq028-P], 0.616; as for Ac-WQPCPWESWT[Phe(4-F)]CWDPGGGK-NH2 (disulfide 4-12) [Seq019-P], 0.601.
As to Ac-SGSG[AEEA]WQPCPWESWTFCWDPGGGK-NH2 (disulfide 9-17) [Seq017-P], the “Rel IC50” value in the assay with DDE [2] is 0.714 ratio to the reference peptide.
